# B1: HIF decoy 821/822 (dsDNA)
# DNA 1: CGCGAGCGTACGTGCCTCAGG
# DNA 2: CCTGAGGCACGTACGCTCGCG
# B2: HIF decoy 843/844 (dsDNA)
# DNA 1: GTGCATACGTGGGCTCCA
# DNA 2: TGGAGCCCACGTATGCAC
# B3: HIF decoy 879/880 (dsDNA)
# DNA 1: GGCTGCTGCAGACGTGCAGGTC
# DNA 2: GACCTGCACGTCTGCAGCAGCC
# B4: HIF decoy 841/842 double (dsDNA)
# DNA 1: AGCGGACGTGCAGAAGTTGCACGTCCTCT
# DNA 2: AGAGGACGTGCAACTTCTGCACGTCCGCT
# B5: HIF decoy 845/846 (dsDNA)
# DNA 1: GAGCGTACGTGCCTCAGG
# DNA 2: CCTGAGGCACGTACGCTC
# B6: HIF decoy 855/856 (dsDNA)
# DNA 1: GTGTGTACGTGCAGGAAA
# DNA 2: TTTCCTGCACGTACACAC
# B7: HIF decoy 849/850 (dsDNA)
# DNA 1: GCCTACACGTGGGTTCCC
# DNA 2: GGGAACCCACGTGTAGGC
# B8: HIF decoy 859/860 (dsDNA)
# DNA 1: ACCGTACGTGCTGATC
# DNA 2: GATCAGCACGTACGGT
# B9: HIF decoy 851/852 (dsDNA)
# DNA 1: CGGAGTACGTGACGGAGC
# DNA 2: GCTCCGTCACGTACTCCG
# B10: HIF decoy 869/870 (dsDNA)
# DNA 1: AGCAGACGTGCAGGGT
# DNA 2: ACCCTGCACGTCTGCT
# B11: HIF decoy 853/854 (dsDNA)
# DNA 1: TTGCTTACGTGCGCCCGG
# DNA 2: CCGGGCGCACGTAAGCAA
# B12: HIF decoy 887/888 (dsDNA)
# DNA 1: GGCTGCACCGTACGTGCTGATC
# DNA 2: GATCAGCACGTACGGTGCAGCC
# B13: HIF decoy 801/802 (dsDNA)
# DNA 1: GCCCTACGTGCTGTCTCA
# DNA 2: TGAGACAGCACGTAGGGC
# B14: HIF decoy 805/806 (dsDNA)
# DNA 1: CCCCCTCGGACGTGACTCGGACCAC
# DNA 2: GTGGTCCGAGTCACGTCCGAGGGGG
# B15: HIF decoy 871/872 (dsDNA)
# DNA 1: ACCGTACGTGCTGCCA
# DNA 2: TGGCAGCACGTACGGT
# B16: HIF decoy 891/892 (dsDNA)
# DNA 1: GGCTGCTGCATACGTGCAGGTC
# DNA 2: GACCTGCACGTATGCAGCAGCC
# B17: 153/154 PO/H11 (dsDNA)
# DNA 1: AGTTGAGGACTTTCCAGGC
# DNA 2: GCCTGGAAAGTCCTCAACT
# modifications: strand 153 PO; strand 154 PS at the 11 most 3' linkages
# B18: HIF decoy 819/820 double (dsDNA)
# DNA 1: GAAATACGTGCGCTTTGTGTGTACGTGCAGGAA
# DNA 2: TTCCTGCACGTACACACAAAGCGCACGTATTTC
# B19: HIF decoy 873/874 (dsDNA)
# DNA 1: TCCGTACGTGCTGCGT
# DNA 2: ACGCAGCACGTACGGA
# B20: HIF decoy 863/864 (dsDNA)
# DNA 1: AGCAGACGTGCAGGAT
# DNA 2: ATCCTGCACGTCTGCT
# B21: HIF decoy 865/866 (dsDNA)
# DNA 1: AGCAGACGTGCAGGCA
# DNA 2: TGCCTGCACGTCTGCT
# B22: 153/154 PO (dsDNA)
# DNA 1: AGTTGAGGACTTTCCAGGC
# DNA 2: GCCTGGAAAGTCCTCAACT
# B23: 153/154 H5/PO (dsDNA)
# DNA 1: AGTTGAGGACTTTCCAGGC
# DNA 2: GCCTGGAAAGTCCTCAACT
# modifications: PS at the 5 most 3' linkages of strand 153, strand 154 PO
# Target: T1, HIF-1 complex (HIF-1alpha containing) (UniProt Q16665;P27540 Q16665:1-826,P27540:2-789)
# T1 sequence (Q16665 whole entry, chain 1 of 2): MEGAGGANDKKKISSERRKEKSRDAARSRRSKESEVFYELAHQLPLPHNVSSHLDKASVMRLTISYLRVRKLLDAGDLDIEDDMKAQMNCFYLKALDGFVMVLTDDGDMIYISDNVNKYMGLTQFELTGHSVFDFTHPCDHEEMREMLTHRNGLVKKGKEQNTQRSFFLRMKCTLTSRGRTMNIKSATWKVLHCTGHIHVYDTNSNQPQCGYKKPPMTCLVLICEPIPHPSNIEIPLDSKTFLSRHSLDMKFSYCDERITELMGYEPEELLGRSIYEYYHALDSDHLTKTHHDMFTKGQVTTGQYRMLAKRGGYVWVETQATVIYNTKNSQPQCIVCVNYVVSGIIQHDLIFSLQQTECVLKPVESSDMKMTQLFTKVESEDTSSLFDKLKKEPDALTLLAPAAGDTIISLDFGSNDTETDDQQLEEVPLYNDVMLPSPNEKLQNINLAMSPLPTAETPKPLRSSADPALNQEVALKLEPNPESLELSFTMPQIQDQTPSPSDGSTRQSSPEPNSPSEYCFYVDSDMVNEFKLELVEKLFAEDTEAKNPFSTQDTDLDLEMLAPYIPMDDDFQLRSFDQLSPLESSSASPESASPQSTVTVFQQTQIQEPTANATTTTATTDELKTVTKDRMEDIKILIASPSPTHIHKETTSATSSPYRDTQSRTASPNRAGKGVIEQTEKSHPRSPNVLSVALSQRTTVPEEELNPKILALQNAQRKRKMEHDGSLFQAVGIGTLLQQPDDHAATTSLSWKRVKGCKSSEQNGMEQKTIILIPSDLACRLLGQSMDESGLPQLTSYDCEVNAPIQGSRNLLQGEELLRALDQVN
# T1 sequence (P27540 2-789, chain 2 of 2): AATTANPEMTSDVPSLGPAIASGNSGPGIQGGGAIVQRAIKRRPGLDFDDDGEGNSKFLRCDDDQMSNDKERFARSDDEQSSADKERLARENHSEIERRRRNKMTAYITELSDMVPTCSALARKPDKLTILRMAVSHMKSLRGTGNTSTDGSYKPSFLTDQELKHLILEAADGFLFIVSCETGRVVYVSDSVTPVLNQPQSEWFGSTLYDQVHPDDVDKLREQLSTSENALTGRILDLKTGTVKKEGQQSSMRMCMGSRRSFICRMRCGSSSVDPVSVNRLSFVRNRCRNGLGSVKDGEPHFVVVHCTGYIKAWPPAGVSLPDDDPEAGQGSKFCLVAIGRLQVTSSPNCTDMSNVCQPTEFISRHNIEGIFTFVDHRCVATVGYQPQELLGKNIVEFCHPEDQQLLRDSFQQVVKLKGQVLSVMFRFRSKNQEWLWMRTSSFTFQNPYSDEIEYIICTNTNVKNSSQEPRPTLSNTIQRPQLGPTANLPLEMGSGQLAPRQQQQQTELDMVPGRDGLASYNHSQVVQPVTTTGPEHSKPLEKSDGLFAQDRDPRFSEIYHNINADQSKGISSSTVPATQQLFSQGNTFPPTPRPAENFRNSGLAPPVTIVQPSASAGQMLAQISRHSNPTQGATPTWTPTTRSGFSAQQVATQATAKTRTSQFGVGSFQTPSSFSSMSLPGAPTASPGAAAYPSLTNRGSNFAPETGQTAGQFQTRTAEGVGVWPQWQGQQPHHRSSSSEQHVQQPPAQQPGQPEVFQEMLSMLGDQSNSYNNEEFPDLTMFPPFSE
# Assay: competition
# Conditions: protein: extract; tags: nuclear extract, TransAM HIF-1 kit Active Motif 47096
# Experimental: (§1) To assess the relative affinities of oligonucleotides for a HIF-1α containing complex, the HIF-1 TransAM assay (Active Motif, Catalog # 47096) was utilized. The assay was performed according to manufacturer's instructions. Briefly, a double-stranded oligonucletide containing the hypoxia response element (HRE) was immobilized on a 96-well plate. A nuclear extract containing HIF-1 alpha complexes was incubated and allowed to bind to the immobilized oligonucleotide. The unbound material was washed away and the bound HIF-1α detected using an antibody that specificially recognizes HIF-1α. The anti-HIF-1α antibody was detected by a secondary antibody labeled with horseradish peroxidase (HRP), and the amount of HRP in each well was measured using a colorimetric substrate reaction and read using a microplate spectrophotometer.
# (§2) The ability of candidate decoy molecules to compete for binding of HIF-1α to the HRE element immobilized on the plate were measured and compared to reveal relative binding affinities. Candidate decoys were added in increasing molar ratios (relative to the amount of oligo immobilized on the plate) to compete for binding to the HIF-1α containing complexes. […] A well containing a competing decoy able to bind HIF-1α with high affinity would give a lower absorbance reading as compared to a decoy with low affinity for HIF-1α. All potential decoys were then compared and ranked in order to assess their relative binding affinities.
# (§3) The screen was conducted using different decoy concentrations. For each UV absorbance reading, normalization was done by calculating the ratio of absorbance readings of sample vs. wild type control. The bigger ratio represents less competition of binding with HIF-1α when compared with wild-type control. The smaller (smaller than 1.0 or close to 1.0) ratios represent better binding or better competition.
row,Binder,binding signal
1,B1,1.26 ratio to wild-type control absorbance
2,B2,1.81 ratio to wild-type control absorbance
3,B3,1.98 ratio to wild-type control absorbance
4,B4,0.95 ratio to wild-type control absorbance
5,B5,1.57 ratio to wild-type control absorbance
6,B6,1.21 ratio to wild-type control absorbance
7,B7,1.96 ratio to wild-type control absorbance
8,B8,1.85 ratio to wild-type control absorbance
9,B9,1.08 ratio to wild-type control absorbance
10,B10,1.93 ratio to wild-type control absorbance
11,B11,1.62 ratio to wild-type control absorbance
12,B12,1.94 ratio to wild-type control absorbance
13,B13,1.83 ratio to wild-type control absorbance
14,B14,1.09 ratio to wild-type control absorbance
15,B15,1.87 ratio to wild-type control absorbance
16,B16,1.6 ratio to wild-type control absorbance

# Target: T2, NF-kB p50/p50 homodimer (Homo sapiens, UniProt P19838 P19838:1-433)
# T2 sequence (P19838 1-433, one chain of several): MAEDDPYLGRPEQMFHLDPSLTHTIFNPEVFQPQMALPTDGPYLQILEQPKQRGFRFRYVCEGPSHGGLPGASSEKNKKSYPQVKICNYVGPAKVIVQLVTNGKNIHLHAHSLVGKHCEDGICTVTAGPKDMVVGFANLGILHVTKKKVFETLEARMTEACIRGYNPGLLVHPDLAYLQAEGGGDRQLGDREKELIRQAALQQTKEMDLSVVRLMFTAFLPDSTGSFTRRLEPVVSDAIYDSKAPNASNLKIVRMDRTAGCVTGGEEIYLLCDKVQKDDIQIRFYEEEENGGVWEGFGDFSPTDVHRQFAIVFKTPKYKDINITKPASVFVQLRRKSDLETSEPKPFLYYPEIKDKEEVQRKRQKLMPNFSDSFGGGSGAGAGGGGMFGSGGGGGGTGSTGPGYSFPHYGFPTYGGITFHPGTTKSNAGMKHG
# Assay: EMSA
# Conditions: protein: extract; tags: nuclear extract of LPS-stimulated THP-1 cells; chain copies: 2 (stated)
# Description: (§4) The EMSA assay was employed to characterize oligonucleotide decoys for the NF-κB transcription factor. […] Using the above modified oligonucleotides to compete for binding for the above-mentioned NF-κB family members, it was possible to compare the binding affinity of these oligonucleotides against the high affinity radiolabeled probe and each other. This assay has also enabled the design of a decoy which selectively binds particular members of the NF-κB family. By using increasing concentrations of various oligonucleotides, it was observed that, by deleting or changing targeted residues in the binding site, it was possible to specifically decrease the binding of the decoy molecule to p50/p50 homodimers, while retaining the affinity for p65/p50 and cRel/p50 heterodimers.
# (§5) The NF-κB gel shift assays (EMSA) were performed as follows. A double-stranded oligonucleotide containing a consensus NF-κB binding site (5′ […].GGC 3′) (SEQ ID NO: 26) was end-labeled with γ³²P-ATP using T4 Polynucleotide Kinase (Promega). […] The dried gels were imaged and quantitated using a Typhoon 8600 Phosphorlmager (Amersham) and ImageQuant software. […]
row,Binder,IC50
1,B17,40 fold molar excess

# Target: T1, HIF-1 complex (HIF-1alpha containing)
# Assay: competition; smaller is better competition; TransAM plate assay
# Conditions: protein: extract; tags: nuclear extract, TransAM HIF-1 kit Active Motif 47096
# Experimental: as §1
# The ability of candidate decoy molecules to compete for binding of HIF-1α to the HRE element immobilized on the plate were measured and compared to reveal relative binding affinities. […] A well containing a competing decoy able to bind HIF-1α with high affinity would give a lower absorbance reading as compared to a decoy with low affinity for HIF-1α. […]
# The screen was conducted using different decoy concentrations. For each UV absorbance reading, normalization was done by calculating the ratio of absorbance readings of sample vs. wild type control. […]
row,Binder,binding signal
1,B18,0.88 ratio to wild-type control absorbance

# Target: T1, HIF-1 complex (HIF-1alpha containing)
# Assay: competition; TransAM; higher ratio = poorer competition; scramble 2.19
# Conditions: protein: extract; tags: nuclear extract, TransAM HIF-1 kit Active Motif 47096
# Experimental: as §1, §2, §3
row,Binder,binding signal
1,B19,2.04 ratio to wild-type control
2,B20,2.02 ratio to wild-type control
3,B21,2.01 ratio to wild-type control

# Target: T2, NF-kB p50/p50 homodimer
# Assay: EMSA; competition against labelled probe 113/114
# Conditions: protein: extract; tags: nuclear extract of LPS-stimulated THP-1 cells; chain copies: 2 (stated)
# Description: as §4, §5
row,Binder,IC50
1,B22,92 fold molar excess
2,B23,83 fold molar excess
